The values that follow come from article PMC3581573 (2013).

This assay deals with Recombinant Flag-tagged human PRMT5 (Homo sapiens (Human), UniProt O14744). Nature of the assay: anti-Flag pulldown with immunoblot.
Chain of Recombinant Flag-tagged human PRMT5 (O14744 whole entry): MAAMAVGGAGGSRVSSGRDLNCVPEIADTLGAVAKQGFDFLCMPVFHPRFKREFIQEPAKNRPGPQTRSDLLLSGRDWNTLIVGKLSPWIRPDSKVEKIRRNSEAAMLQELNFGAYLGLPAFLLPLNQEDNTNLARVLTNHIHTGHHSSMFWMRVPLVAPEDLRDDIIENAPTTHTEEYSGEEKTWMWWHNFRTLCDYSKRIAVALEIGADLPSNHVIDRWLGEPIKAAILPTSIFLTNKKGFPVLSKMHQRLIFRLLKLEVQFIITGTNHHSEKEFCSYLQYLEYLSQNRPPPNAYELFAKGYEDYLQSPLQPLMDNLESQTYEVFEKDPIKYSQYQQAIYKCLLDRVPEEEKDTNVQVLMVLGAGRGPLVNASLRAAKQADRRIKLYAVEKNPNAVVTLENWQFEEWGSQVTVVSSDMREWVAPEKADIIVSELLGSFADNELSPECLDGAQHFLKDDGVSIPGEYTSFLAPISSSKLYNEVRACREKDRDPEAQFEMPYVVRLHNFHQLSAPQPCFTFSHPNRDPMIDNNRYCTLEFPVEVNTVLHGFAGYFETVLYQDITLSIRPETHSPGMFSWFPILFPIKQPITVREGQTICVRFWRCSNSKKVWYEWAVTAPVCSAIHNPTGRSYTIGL

B1: Recombinant Xenopus laevis MEP50 alone (protein)
chain: MSKGSAWGRPVTAPACMEVQIGAVRYRRDGALLLAASSLSSRTWGGSIWVFKDPEGAPNESLCTAGVQTEAGVTDVAWVSEKGILVASDSGAVELWEILEKESLLVNKFAKYEHDDIVKTLSVFSDGTQAVSGGKDFSVKVWDLSQKAVLKSYNAHSSEVNCVAACPGKDTIFLSCGEDGRILLWDTRKPKPATRIDFCASDTIPTSVTWHPEKDDTFACGDETGNVSLVNIKNPDSAQTSAVHSQNITGLAYSYHSSPFLASISEDCTVAVLDADFSEVFRDLSHRDFVTGVAWSPLDHSKFTTVGWDHKVLHHHLPSEGRTENLIATKAED
In the case of B1, the binding result was “binds”.
